According to publication PMC3699631, “Posttranslational Modifications of the Histone 3 Tail and Their Impact on the Activity of Histone Lysine Demethylases In Vitro” (PLoS ONE, 2013):
“Also recorded” adds a separate entry of the source.

Target: T1, human FL-KDM4C (Homo sapiens, UniProt Q9H3R0)
T1 construct: along with the full length FL- KDM4C and FL-KDM4A using various synthetic histone tail peptides as substrates; His6 (N); FLAG (N); made in house; host or cells: High Five (Trichoplusia ni) insect cells, baculovirus
T1 sequence (Q9H3R0 1-1056): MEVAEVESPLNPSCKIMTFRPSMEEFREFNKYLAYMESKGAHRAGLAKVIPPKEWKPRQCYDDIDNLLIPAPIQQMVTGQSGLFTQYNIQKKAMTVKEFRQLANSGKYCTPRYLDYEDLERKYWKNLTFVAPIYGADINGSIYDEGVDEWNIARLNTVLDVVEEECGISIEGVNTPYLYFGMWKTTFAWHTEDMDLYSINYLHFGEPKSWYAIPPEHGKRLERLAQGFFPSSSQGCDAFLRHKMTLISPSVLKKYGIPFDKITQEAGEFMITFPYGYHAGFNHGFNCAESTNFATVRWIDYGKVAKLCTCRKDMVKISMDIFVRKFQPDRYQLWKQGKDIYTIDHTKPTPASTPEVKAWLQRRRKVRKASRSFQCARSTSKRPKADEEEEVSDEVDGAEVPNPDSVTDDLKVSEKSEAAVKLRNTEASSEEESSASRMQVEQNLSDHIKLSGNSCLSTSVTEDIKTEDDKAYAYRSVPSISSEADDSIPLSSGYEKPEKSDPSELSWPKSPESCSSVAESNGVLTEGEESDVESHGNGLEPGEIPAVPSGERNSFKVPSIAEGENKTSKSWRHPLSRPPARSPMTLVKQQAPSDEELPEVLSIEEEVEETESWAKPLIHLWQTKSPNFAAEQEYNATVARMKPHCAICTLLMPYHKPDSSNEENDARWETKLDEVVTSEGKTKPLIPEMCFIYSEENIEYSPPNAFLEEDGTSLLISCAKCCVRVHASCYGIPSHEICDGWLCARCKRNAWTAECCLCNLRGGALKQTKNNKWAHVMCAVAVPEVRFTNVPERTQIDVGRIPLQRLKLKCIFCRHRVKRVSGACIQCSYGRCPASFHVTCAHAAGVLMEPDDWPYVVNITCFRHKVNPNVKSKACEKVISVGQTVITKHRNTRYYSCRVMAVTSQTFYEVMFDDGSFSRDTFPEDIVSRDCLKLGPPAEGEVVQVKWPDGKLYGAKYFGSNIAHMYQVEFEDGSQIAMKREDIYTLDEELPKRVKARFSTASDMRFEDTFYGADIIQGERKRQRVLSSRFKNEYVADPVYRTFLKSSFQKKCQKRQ
Experiment: FDH-assay enzyme kinetics of H3 peptide demethylation, full length KDM4C
Assay type: biochemical
Parameters: key to K m / k cat / k cat /K m: 0 means no demethylation could be detected
Details: for demethylation / catalytic activity (in words) / K m / k cat / k cat /K m: FDH-assay; for K m: 50 mM HEPES (pH 7.5), 50 mM NaCl, 50 µM FeSO4, 500 µM α-KG, 500 µM ascorbate, 2 mM NAD, substrate 10–1000 µM, NADH fluorescence 15–30 minutes; for K m / k cat: triplicate; for k cat: pH 7.5, NADH fluorescence; for k cat /K m: pH 7.5, triplicate
Description: The enzyme kinetics were measured using a Formaldehyde DeHydrogenase Assay (FDH-Assay) and the demethylation of substrates was confirmed when possible by MALDI-TOF-MS, see File S1 for details. The test solution contained 50 mM HEPES (pH 7.5), 50 mM NaCl, 50 µM FeSO4, 500 µM α-KG, 500 µM ascorbate, 2 mM NAD, approximately 0.05 unit of FDH and e.g. 4.88 µM KDM4C (enzyme concentration varied between batches). The reference solution was comprised of the same except substrate. The assay was initiated by adding various concentrations of H3 peptide substrates e.g. H3(1–24)K9me3 (10–1000 µM) and the increase in NADH fluorescence was measured over 15–30 minutes in 30 second intervals. Data analysis and kinetic values were obtained using programs Excel and GraphPad Prism® 5.0. For details, see File S1.
The standard deviations for k cat/K m were calculated using the statistic law of propagation of errors. Standard errors for Michaelis-Menten Kinetics were automatically given in GraphPad Prism®, with a 95% confidence interval. All enzyme kinetic curves were done in triplicate unless otherwise stated.
Test for activity of enzyme using the fluorescence FDH assay, determination of Vmax and Km of enzymes with substrate, expression and purification of cc-KDM4A and cc-KDM4C software and parameters for the FDH coupled assay, see Lohse et al.^21
Recombinant baculoviridae encoding the full Open Reading Frame (ORF) of FL-KDM4A and FL-KDM4C were generously donated from the Biotech Research and Innovation Centre (BRIC), University of Copenhagen, Denmark. Recombinant protein was expressed by adding High Titer Stocks to High Five (Trichopulsia ni) insect cells in suspension culture. The cell cultures were harvested by centrifugation after ~ 60 hours and the cells were resuspended in hypotonic buffer (25 mM Hepes-KOH, pH 7.7, 1.5 mM MgCl, 5 mM KCl) supplemented with one protease inhibitor cocktail tablet per 500 ml expression (Roche, EDTA-free). The resuspended cells were frozen at -20 °C.
Both proteins were purified by IMAC using Talon FF (Clontech) cobalt resin according to the following protocol; resuspended cells were thawed on ice, 100 ml hypotonic buffer was added per 500 ml expression volume and the cells were incubated with stirring for 30 min. at 4 °C, followed by a brief (30 s per 500 ml culture volume) sonication. β-mercaptoethanol (BME, 2 mM final concentration), Triton X-100 (0.2 % final concentration) and NaCl (300 mM final concentration) were added and the cell suspension was stirred for another 30 min at 4 °C. The lysate was cleared by centrifugation at 50.000 g for 60 minutes. The cleared lysates were adjusted to 5 mM imidazole and incubated with Talon resin (1 ml /500 ml expression) for 60 minutes. The resin was allowed to sediment, the lysate removed and the resin was transferred to PD-10 gravity flow columns (GE Healthcare). The resin was washed with 10 column volumes of binding buffer (50 mM Hepes-KOH, pH 7.7, 300 mM NaCl, 5 mM imidazole, 10% glycerol, 0.05 % Triton X-100, 2 mM BME) and eluted with 2 x 2.5 ml elution buffer (50 mM Hepes-KOH, pH 7.7, 300 mM NaCl, 100 mM imidazole, 10 % glycerol, 0.05 % Triton X-100, 2 mM BME). Each eluted fraction has its buffer changed to 50 mM Hepes pH 7.5, 300 mM NaCl, 10 % glycerol using a PD-10 desalting column. The protein was concentrated to 6-7 mg/ml (FL-KDM4A) or 10-12 mg/ml (FL-KDM4C). Despite the buffer change it is likely that small amounts of Triton X-100 remained in the protein samples. Triton X-100 has a significant absorbance at 280 nm, so the protein concentration was determined by Bradford assay using a BSA standard curve. The protein purity was approximately 70 % as judged from SDS-PAGE. The concentrated protein was aliquoted and stored at -80 °C until assays were performed.
The standard deviations for kcat/ Km were calculated using the statistic law of propagation of errors. […]

[1] = SD by propagation of errors, unit: (min^−1 * µM^−1) * 10^3

Substance	demethylation / catalytic activity (in words)	K m	k cat	k cat /K m [1]	fold increase in k cat/K m (compared to H3(1–24)K9me3) [fold]	k cat /K m (figures) [min^-1 * μM^-1 * 10^3]	demethylation / catalytic activity (in words) (listed as H3K9me3)
H3(1–24)K4me3K9me3: bis-tri-methylated substrate, trimethylated K4 in combination with H3K9me3	a small difference in activity between H3(1–24)K9me3 and H3(1–24)K4me3-K9me3	42±3	1.1±0.2	24±3	2	24 ± 3	
H3(1–24)K9me2: truncated histone tail, 24 first amino acids from the N-terminus of H3, dimethylated lysine 9		79±10		1.3±0.2		2 ± 0.4	
H3(1–24)K9me3: truncated histone tail, 24 first amino acids from the N-terminus of H3, trimethylated lysine 9; control peptide		57±5	0.7±0.1	12±2		12 ± 2	preference for the H3K9me3 over the H3K9me2; also recorded: an order of magnitude higher activity towards trimethylated H3K9me3 compared to dimethylated H3K9me2 substrates
H3(1–24)K9me3T11(ph): H3(1–24)K9me3 with phosphorylation of threonine 11	no detectable turnover	0	0	0			
